Data taken from the domain aggregation screens of Martell et al. (2025).

Experiment: soluble fraction after stress (log2 fold change); higher = more stays soluble; pooled small domains, quantitative proteomics
Settings: stress: pH 4
Summary of the method: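 Aggregation propensity is read out as the fold change in how much of each domain remains soluble after acid stress. The custom small-domain libraries were pooled, held at pH 4 and analysed with high-throughput quantitative proteomics. On the log2 scale used, higher values mean more of the domain stayed soluble.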

Row | Sequence | soluble fraction (log2)
1 | HMNYIEWKNTFKKYLYLLPIKEEKETLAYFDEQYNKLNPKDLDNVENIFSDPIDKAAFVVAFYLEMEDEIK | -0.802
2 | HMNYIGADAAKNMAAADAQVDTANASFSGANLGEKNGLSYYQVDFTANGREYHYAIDAMTGTVIESSSAAS | -0.0522
3 | HMNYNEKGEYTRTLTSGSETAVMTYRNFGETLDVALFKNGVQTDSLRLIKSEPGVLYRQSNGQFEKI | -0.0181
4 | HMNYSIVNVGFNNKSLFLRSAPGYSASRLLLPFATERAFVRETLSNGWSRVIVRGTEGYLPTEYVAD | -0.553
5 | HMNYSKQRETILKVLRSTRSHPSVNWIYENVKKEIPDVGLATVYRNLKQLEAAGEIMRIQGDFPEERWDGF | -0.587
6 | HMNYTALLNNFSENMKKRRVELSLSQKELASIVGVSVRTIQNYENKKTIPTSAVMESISIALDMGLEKMID | 0.04
7 | HMNYTQAQIDRANAVSLEDFLRTQGETLIKSGREYRWKEHDSLTVRGNKWFRHSQSKGGYPIDFVMEFTA | -0.0561
8 | HMNYYYKDNQYWYVGFRYDERLVKEIKRFVGAGYNPENKEWYIPFTLPTVAPLQKWLHDNGFVEGMNYYP | -1.31
9 | HMPAAFALLTDREREIAALIAQRLTNREIAEKLYLSEGSVKQYVNQLYAKLGIEGDTRTKRRRLAEQAK | 0.12
10 | HMPAAKARTWQEATHAFQRDFLLETLRRARFNAADAADQLGLARPALYTTAKRLGLDLVAERQRWEAEAH | 0.043
11 | HMPAAPVFLQKDLLDAGLIGQADSAARREKLGKILGIGYGNGKVMLQRLNSFGIERDAFEQAVQE | -0.195
12 | HMPAASDALAGELAQIARLDIAKLLAGDLSEADWSRITSATVQLSERHPDASDELTALVERIDTAYSARAT | -1.32
13 | HMPAEGWEASGDTWRYRQKDGSYITNAWVQDTDGKWYYFDESSLMVRNQTTSDGYYVGEDGVWTET | -1.83
14 | HMPAELGVVVRNANLRSGPGTKYAIVGSAPAGTTVRIAGTNKAGDWYHLSSGRWIAAFLVDRN | 0.34
15 | HMPAERLSMRKIYEILRLKYGHGLSNREVALSVSVSRSTVADYLLRAQAAGLSWPLPDGLDETGLEQRLFP | -0.572
16 | HMPAFGALTLRQRDLVELIAQGLDNSQIAARLGLAEKTVRNHITMIFNKLEMENRSQVIVRARESGFGAVR | -0.228
17 | HMPAKIIKKSFVYNPIHRDTEYLAQFLQGEGQVSASGDKLVYYGTVEDISRIKSVLQSVDTPS | -0.434
18 | HMPALATKDSVLDGRAEVVSYVRDTSVFYLRVRVPQKQGYRSRRIDGVSTLPEAITKALDTYMDLGT | -1.02
19 | HMPALELLVESKKPLLIHGEKIAEDINLFDREKYFIDDELIRIVKEFPSLKIILEHVSSKYGAD | -1.59
20 | HMPAMYKAERMNQILSILADQGDVDVGTLARQFGVSLVTIRKDLTYLESSGQLVRTHGGAIAVA | -0.26
21 | HMPASVEYIRLAAEQMTGQQVTIIEQPGNYAFILRIHLNDIYSLDLAALRARIDELKPAHLTYTVEQYD | -1.85
22 | HMPATTMMVVVDRDLPYGHVLTDRDVRLETRRATSPGASVAFTSIDPVLGQSLTRPLGAGTPVGRADLR | -0.151
23 | HMPAVVEFDVKPRGEVLVDGIWYGRIPELREVELRPGRHHLRVQNAGHPSLDLVVTLEPGERMTVTHTFA | -0.33
24 | HMPDAENFRYRVPYTTEQNRLQYYEGDIRAENADKARDQVMQDAQKYFAQNTAFTPNYIDTDIISLD | -0.615
25 | HMPDFAENAVYGKQREDSLYAHAYKHFQLGDTTTVRAAEHLSAEIYPLGQHRPKFMFLNAVTR | 0.22

Row | Sequence | soluble fraction (log2)
26 | HMPDITAAVARTLQALRADRGWSLDQLAARSGVSKGVLVALEQGRSNPNLATLARIGDAFGVPVTLLVDL | -0.196
27 | HMPDPHSEARNIVLNQLNFMPRSRKELETALAKRNIEADVAKIVLDRFEEIGMVDDAAYAEL | -1.2
28 | HMPDPLYLINGKIVNKSDFNNIDPRSIQSIEVLKANKALEAFGNDGKNGVIKITLKSSNDQM | 0.22
29 | HMPEEGPSEDGNSFTAKFKLGSDVQGAMEQADAAAKAGLQDAGKGTGQITSRAQVGGYIYSTATA | 0.22
30 | HMPEIFYRKIHRTDHDQIALDAEMIRLLIAIDEKKSLSQIAAEVQMEPMALKKNLGKLIQLGLVEPIK | -0.179
31 | HMPELSNNLDRDKVALKNFNESLKDGLTPAEAYANHLTNVSKAAQEAARQSNGLPVDIDKYHNSQLAASMA | ≥ 0.43
32 | HMPEMAIRTLRLRNQRGAAVAAEWSRITASLLELRQVEFVNPVDQLIVLKGPEPWAGVAEELVRQLDV | -1.02
33 | HMPEQLLNTRIPLEFAGRRFDASLAELFPDYSRSRLAAWIKDGAARLDGETVAPRHTVRGGEQVEILVRM | -0.13
34 | HMPERLTYVHPDGAEPMRADKALAAFLSGRISRSRLLGSFSAGKVMAGGKPVEKKLLLRAGDALEVELPEP | 0.0894
35 | HMPERMLEPLLNGNEIMKVTQLQPGPKVGLIRDALLQAQISGDVTDTESAKAFVQDYAKRNI | 0.386
36 | HMPESETIMVDVKGAVQSEGVYELPSTARVNDAIEAAGGFSDQADKKSVNLAQKLSDEAVVYVASQGENV | -0.28
37 | HMPEVTMSYSARNQVVSFSKATQYEIVDEFGTVVLRGVGNQATLRYLSRGDYFVNFGAGTEVLKK | 0.089
38 | HMPEVYSFEVNEGAAGKRLDIFLSGEIEGLTRSFIQKLISEGMATVNQEPPRASYRVKTRDLVELQIPDPE | -0.309
39 | HMPFDWSAFDWKGWADEALAIIKTANQDQMNKWTEDNEKIIVQAETAAPDIYKTVGDEYDKKMESFN | 0.0448
40 | HMPFESEMKHWIHLFAHELNLKVSDKYTQKIIEIFGNNFSEIFNEMSKSSLVSSNEKDLLNALEKSGNIH | -0.862
41 | HMPFGIYGGKVSSLDDLKDKAAVLVPNDVSNEARALLLLEAQGLIKLKEGVGLEATRNDIVEN | -0.0596
42 | HMPFTLDGVNEGSRNDQAARMSGYLISKNLNMDFIKFFMQSWNRQNSPPLSQREINSVVDNVKRTHDRKNK | -0.697
43 | HMPGKVSDAGATAKDNRLFLEAVFWRVRTGSPWRDLPPAFGHWNSQFRRFRRWAKAGVFESLFNA | 0.179
44 | HMPGRKKLAIIYKNDYIGAFNLADSYRDSYEVSMYAFPKKVGKLLNRLELQGFNAYVIYDKDNEENNFNTI | 0.00545
45 | HMPGSGELSRRLELAIRDRTAVRVTAAAAGQERSFTLLPVAITSGRLRATDEQAGVQRTLPLSAIVAVEA | -0.135
46 | HMPGTEAQDGEVLLDALRRIHPDSSTGTLRRMLTQGRVQVDGTTVHAAKAELTSGQHVEVVAR | -0.0746
47 | HMPIDIEPVLQWIRDNSIDGIGPARSMYHSAAAAAGLPSYSSLQLRKWTWPLLLDAAGVQRR | -0.265
48 | HMPIRMLQVQKTNTGYLNVRDTPSVSGALIGKVFPGDMLSSTEERDGWFLVAVPQGGTGWVSGDYVKTTS | 0.0778
49 | HMPKAPHETLSRREMEVLLLLSEGVTLTRIGDTIHVSVKTVSTYRARILQKLDLQSNAELTRYVLQHKL | ≥ 0.43
50 | HMPKHDWDAFAGAIARRVHDHGMPVSQGELVRDMMDWFAGRKDFPPPDERTVRRKVSAIWRELNG | -0.292

Row | Sequence | soluble fraction (log2)
51 | HMPKIPRLTLTETAGIMGVSQRALALAIQQGMYSWAQALPGRNKKRPIYFINAITFAKAQGIDLEEYK | -0.529
52 | HMPKKLIWERTTSKLQLYITQDRYELKTPLMTIPFTSKSKMMVYLQQRYHLDMQEYRQIYDAG | 0.0815
53 | HMPKMDGLTVMEQVNQDHFVNKRPYFIVITAVGQEKITEDAFNKGANYYVMKPFNNNMLLERIKSVRK | 0.0916
54 | HMPKYLNIYHELAQRIQEGALPAETKLPSETELMQEFEASRGTVRKAIDALQEKGFVRKHQGKGVFVLSQ | 0.152
55 | HMPLDYNELRSISPKAARQAILQILAANKGNVSATAKLLGVSRKTVYKAMHKKASGNLDDTSRAPK | 0.13
56 | HMPLITAIELDSISARSFQFNTQSGSTYFIEGSTDLKSWDVIAEVKATDSTTTYEDHRKIYHEAYFYRVRL | -1.55
57 | HMPLITDIKIQVKNTEKVSLFVDGKYSFSLTISQLAEHKILKTNQEISAKQVAEFKKLSNLTNLYIRIVG | -0.296
58 | HMPLITLSAEIQSEQIGQRLDQTLAELFPEYSRSRLKTWIEADLVKLNNQIVNIPREKVLGGEHVEITVDI | -0.792
59 | HMPLNRFLNLPHEDKERVLLIAKKQFSTHGYDAMSLNLLLKELDISKGQFYYWFEDKADLFFTVL | 0.0543
60 | HMPLRPNQRQFIHLMVYQGLDRNEAYAQANNKVLTEENYESIRTAAAKTFYTPHVNNYYHALMEEIRDRE | -0.404
61 | HMPLSVRQRMSDILSNLKTSDFTNFADLFDPKEGRTGITVTFIAILELLREFLIEVVQSDHYQPLHVRAAS | 0.115
62 | HMPLTAASLQTYLRGVDYPASKQDLIAHARKSDAPEDAITVLEQYSEQTYRSAADVSAEFGS | -0.156
63 | HMPLTEMAVRKHLSAELAQKGYTIDPRALEILLQRTNTNLTAIANELPKLLLVAEDKQITVNEVSAM | -0.1
64 | HMPLTKKLETLFSLFPKYEKELKKKGVTRIHVWANYKEEYPDGIGRSQFIHYYSFWKKQVSP | -0.045
65 | HMPLVIIRGIEGVFSSEEKAEAIRKVTDALVSVKGENVRGFAWVVFEEVKSGDWGIGGESITAEKVIMSL | -0.39
66 | HMPMDDETWDALSLFAYKRYARENGWPLMIGAEALRDTFASYFPLDSSTWQDRSSHYLTYQDGIYTRT | -0.753
67 | HMPMDYFELFNIPRNANRETIKKILDQEYEKYRARVVSPVLEIRHEAELMLVEISKAKQVLLG | -0.223
68 | HMPMHPEDLKKLVSIEMPFGKHKGRIIADLPGNYLNWFAREGFPPGEIGRLLQLMQEIDHNGLSDLLKPLR | -0.645
69 | HMPMNISDIIKQAREELGMTQEDLAERLEVSRQAVSKWELGASVPSPENLRLLEELLGVELPAP | -0.635
70 | HMPNFDPSYILDFGDVIQLQLVGQKNQILEIPILRDGSVNLPDIGKIFLSGMSLEEATKIIKDTYSA | -1.28
71 | HMPNGEAYQRFTYENDILEGRFEEWDSLGTDIVKGDYTAGVRHKKWLYYDSEGRRDKFVFLDMDSI | -0.345
72 | HMPNNNDIVLDRVSFGYHEKEVLHGIDMTIREGTVNALVGPSGSGKSTIAKLIAGLWDVDGGSISF | 0.137
73 | HMPNPSAGRVHIDALLPFDRVEVTDMQGSLLLDHSFSPRRAVDLDLNARGTLLYTLWSKGHLLGKGRVVR | 0.213
74 | HMPNQLLELVEMEIRDLLNEYEFPGDDTPIIQGSALKALEDPMGPWGDKIMDLMDAVDSYIPDPE | -1.46
75 | HMPPAIKTLMFMIQNKSLLKSPKQLAVVQQQLKKIKGVRDVLILLEEGKVMLKVNKHETIHEASIIRLLGG | 0.00198
